Data as given in article PMC11696352.

Target: importin α5 (UniProt P52294)
Assay: Flag co-IP, immunoblot
Conditions: reference: Flag-GCLM wild type; sites T17

GCLM (glutamate-cysteine ligase modifier subunit) (from UniProt P48507) Flag-GCLM T17A
binding against the reference: weaker
